One assay addresses T1, ErbB2 (human, UniProt P04626 23-1255, tyrosine-phosphorylated (active) receptor after HRG stimulation; sites not resolved in the IP and FRET experiments).
T1 construct: whole, on cells; Endogenous receptor, tested in fixed cells (FRET) and in cell lysates (co-IP); also called HER2
The assay is described as follows: ErbB2 immunoprecipitation from SKBr3 and T47D cells.

In assay [1] the target is RACK1, receptor of activated C kinase (human, UniProt P63244 1-317). The assay is described as follows: Copine-III IP from SKBr3 lysates, relative quantification by MRM mass spectrometry.

B1: Copine III (other)
chain: MAAQCVTKVALNVSCANLLDKDIGSKSDPLCVLFLNTSGQQWYEVERTERIKNCLNPQFSKTFIIDYYFEVVQKLKFGVYDIDNKTIELSDDDFLGECECTLGQIVSSKKLTRPLVMKTGRPAGKGSITISAEEIKDNRVVLFEMEARKLDNKDLFGKSDPYLEFHKQTSDGNWLMVHRTEVVKNNLNPVWRPFKISLNSLCYGDMDKTIKVECYDYDNDGSHDLIGTFQTTMTKLKEASRSSPVEFECINEKKRQKKKSYKNSGVISVKQCEITVECTFLDYIMGGCQLNFTVGVDFTGSNGDPRSPDSLHYISPNGVNEYLTALWSVGLVIQDYDADKMFPAFGFGAQIPPQWQVSHEFPMNFNPSNPYCNGIQGIVEAYRSCLPQIKLYGPTNFSPIINHVARFAAAATQQQTASQYFVLLIITDGVITDLDETRQAIVNASRLPMSIIIVGVGGADFSAMEFLDGDGGSLRSPLGEVAIRDIVQFVPFRQFQNAPKEALAQCVLAEIPQQVVGYFNTYKLLPPKNPATKQQKQ
notes: Endogenous protein of the human breast tumor cell lines T47D and SKBr3, tested in cell lysates (pull-down, IP) or in fixed cells (FRET); also called CPNE3; CPN3
On to B1, for which, in the assay with ErbB2, the binding result is “binds”. Also, the “fold enrichment in Copine-III IPs vs. control IPs” value in assay [1] was 1.5 fold.

Source of the values: patent EP2292266A1 (Novartis Forschungsstiftung, Zweigniederlassung, dated 2011).
